Laboratory results reported in patent US20210355187A1, “GLP-2 FUSION POLYPEPTIDES AND USES FOR TREATING AND PREVENTING GASTROINTESTINAL CONDITIONS” (SHIRE-NPS PHARMACEUTICALS, INC., priority 2018, published 2021).
Read-outs that look alike come from different tables or passages of the source.

Columns and labels:
[1] = cited from earlier work
[2] = SEC-MALS assay (protein stability analysis); type: physicochemical; conditions: for SEC-MALS HMW: high molecular weight fraction; for SEC-MALS Main Peak: main peak fraction; for SEC-MALS Tailing Peak: tailing peak fraction
Procedure: A SEC-MALS assay was performed to determine the primary state (main peak) and its molecular weight. The GLP-2 peptibody A has the amino acid sequence set forth in SEQ ID NO: 1. The GLP-2 peptibody B has the amino acid sequence set forth in SEQ ID NO: 4. The GLP-2 peptibody C has the amino acid sequence set forth in SEQ ID NO: 7. The GLP-2 peptibody D has the amino acid sequence set forth in SEQ ID NO: 10.

Row | Molecule | half-life ([1]; SBS patients) | half-life ([1]; healthy patients) | SEC-MALS HMW [2] | SEC-MALS Main Peak [2] | SEC-MALS Tailing Peak [2]
1 | CC[C@H](C)[C@H](NC(=O)[C@H](Cc1ccccc1)NC(=O)[C@H](CC(=O)O)NC(=O)[C@H](CCCNC(=N)N)NC(=O)[C@H](C)NC(=O)[C@H](C)NC(=O)[C@H](CC(C)C)NC(=O)[C@H](CC(N)=O)NC(=O)[C@H](CC(=O)O)NC(=O)[C@H](CC(C)C)NC(=O)[C@@H](NC(=O)[C@@H](NC(=O)[C@H](CC(N)=O)NC(=O)[C@H](CCSC)NC(=O)[C@H](CCC(=O)O)NC(=O)[C@H](CC(=O)O)NC(=O)[C@H](CO)NC(=O)[C@H](Cc1ccccc1)NC(=O)[C@H](CO)NC(=O)CNC(=O)[C@H](CC(=O)O)NC(=O)CNC(=O)[C@@H](N)Cc1c[nH]cn1)[C@@H](C)O)[C@@H](C)CC)C(=O)N[C@@H](CC(N)=O)C(=O)N[C@@H](Cc1c[nH]c2ccccc12)C(=O)N[C@@H](CC(C)C)C(=O)N[C@H](C(=O)N[C@@H](CCC(N)=O)C(=O)N[C@H](C(=O)N[C@@H](CCCCN)C(=O)N[C@H](C(=O)N[C@H](C(=O)N[C@@H](CC(=O)O)C(=O)O)[C@@H](C)O)[C@@H](C)CC)[C@@H](C)O)[C@@H](C)CC [Teduglutide] | ~1.3 h | approximately 2 hours |  |  | 
2 | GLP-2 peptibody B: GLP-2[A2G]-linker APAPAPAPAPAPAPAPAPAP-IgG1(LALA) Fc fusion having the amino acid sequence of SEQ ID NO: 4 |  |  | 1.2% HMW | 80.7% Main Peak | 18.1% Tailing Peak
3 | GLP-2 peptibody C: GLP-2[A2G]-linker AEAAAKEAAAKEAAAKALEAEAAAKEAAAKEAAAKA-IgG1(LALA) Fc fusion having the amino acid sequence of SEQ ID NO: 7 |  |  |  | 82.6% Main Peak | 17.4% Tailing Peak
4 | GLP-2 peptibody D: GLP-2[A2G] with C-terminal arginine-linker GGGGSGGGGSGGGGS-IgG1(LALA) Fc fusion having the amino acid sequence of SEQ ID NO: 10 |  |  | 1.4% HMW | 86.8% Main Peak | 11.8% Tailing Peak
